# Measured values taken from patent US20250216395A1 (ATYR PHARMA, published 2025).
# T1: NRP1v2 (22-602) (human, UniProt O14786 22-602)
# T1 construct: Recombinant protein; also called human NRP1
# T1 sequence: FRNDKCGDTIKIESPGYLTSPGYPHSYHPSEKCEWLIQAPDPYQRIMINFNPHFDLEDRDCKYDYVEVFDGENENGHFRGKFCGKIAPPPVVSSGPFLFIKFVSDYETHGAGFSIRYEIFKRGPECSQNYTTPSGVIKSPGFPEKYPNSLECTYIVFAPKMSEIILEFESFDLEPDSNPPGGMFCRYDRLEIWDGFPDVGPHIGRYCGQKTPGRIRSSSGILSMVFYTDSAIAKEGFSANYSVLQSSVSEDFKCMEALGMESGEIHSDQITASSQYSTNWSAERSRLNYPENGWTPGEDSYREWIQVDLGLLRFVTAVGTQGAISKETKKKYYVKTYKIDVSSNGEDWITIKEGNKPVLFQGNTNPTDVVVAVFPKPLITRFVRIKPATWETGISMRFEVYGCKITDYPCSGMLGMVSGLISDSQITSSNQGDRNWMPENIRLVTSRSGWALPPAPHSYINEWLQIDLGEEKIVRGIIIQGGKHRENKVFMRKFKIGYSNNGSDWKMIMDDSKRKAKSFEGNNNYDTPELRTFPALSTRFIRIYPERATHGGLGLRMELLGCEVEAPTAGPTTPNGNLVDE
# B1: blocking peptide NRP2 (642-659) (peptide)
# peptide: SGFNCNFDFLEEPCGWMY
# notes: Peptide corresponding to residues 642-659 of NRP2
# B2: aNRP2-36v2 (antibody, V domains shown)
# VH: ELQLQQSGPELVKPGASVKISCKASGYSFTDYNMNWVKQSNGKSLEWIGVINPKSGTTVYNQKFKGKATLTVDQSSSTAYMQLNSLTSEDSAVYYCARADSSGGCWGQGTTLTVSS
# VL: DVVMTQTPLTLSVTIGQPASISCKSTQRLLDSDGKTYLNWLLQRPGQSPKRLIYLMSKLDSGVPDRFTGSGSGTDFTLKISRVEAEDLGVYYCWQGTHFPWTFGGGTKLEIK
# notes: Three purification lots were tested; also called antibody aNRP2-36v2; anti-NRP2 antibody
# Columns and labels:
# aNRP2-36v2 = target: B2; assay: Western blot competition: 1 ug/mL aNRP2-36v2 with 5 ug/mL blocking peptide; the blocked detection is that of NRP2v2 (23-855) and of NRP2a isoform 2 in lysate
# Procedure: The specificity of aNRP2-36v2 in Western blotting was also confirmed by the ability of the blocking peptide NRP2 (642-659) (SEQ ID NO: 25) to block binding. For these studies, 100 ng of NRP2v2 (23-855) (SEQ ID NO: 14) recombinant protein and 20 ug of total protein from cell lysates of Expi293 cells transiently expressing NRP2a isoform 2 (SEQ ID NO: 10) were denatured for 10 minutes at 70° C. with 1×LDS (ThermoFisher, NP0007) and separated on a 4-12% Bis-Tris Protein Gel (ThermoFisher, NP0335) in 1×MOPS buffer (ThermoFisher, NP000102). The gel was then transferred to a nitrocellulose membrane (Fisher, cat. #IB23001) using an iBlot2 (Fisher, cat. #IB21001) for 7 min at 20V. The membrane was blocked for 1 hour using a 5% milk 0.05% TBST solution, followed by 1 ug/mL of aNRP2-36v2 antibody with or without 5 ug/mL blocking peptide, diluted in 5% milk 0.05% TBST. A peptide corresponding to NRP2v2 (809-820) (SEQ ID NO: 26) was also used as a control. Antibody was incubated on the blots overnight at 4° C. with rocking. After overnight incubation 3 washes with 0.05% TBST for 5 minutes each were performed and goat-a-mouse HRP secondary (Jackson Immuno Research, 115-035-071) diluted at 1:5,000 in the 5% milk mixture was applied to the blots for 1 hour. This was followed by 3 more washes with 0.05% TBST for 5 minutes each. […]
# NRP1v2 (22-602) = target: T1, NRP1v2 (22-602); assay: Western blot, denatured recombinant protein with or without 50 mM DTT
# Procedure: To characterize the binding specificity of antibody aNRP2-36v2 to different denatured isoforms of NRP2 its binding specificity was tested via western blot. In addition to assessing the relative binding to NRP2a and NRP2b, cross-reactivity to mouse and rat NRP2 were also evaluated, as well as non-specific binding to NRP1. The proteins tested via Western were NRP2v2 (23-855) (SEQ ID NO: 14), NRP2v5 (23-832) (SEQ ID NO: 27), mouse NRP2v2 (23-855) (SEQ ID NO: 21), rat NRP2×2 (23-854) (SEQ ID NO: 22), and NRP1v2 (22-602) (SEQ ID NO: 24).
# 25 ng of each recombinant protein was denatured for 10 minutes at 70° C. with 1×LDS (ThermoFisher, NP0007) with or without 50 mM DTT and separated on a 4-12% Bis-Tris Protein Gel (ThermoFisher, NP0335) in 1×MOPS buffer (ThermoFisher, NP000102). The gel was then transferred to a nitrocellulose membrane (Fisher, cat. #IB23001) using an iBlot2 (Fisher, cat. #IB21001) for 7 min at 20V. The membrane was blocked for 1 hour using a 5% milk 0.05% TBST solution, followed by 1.0 ug/mL of the three lots of aNRP2-36v2 antibody diluted in 5% milk 0.05% TBST. Antibody was incubated on the blots overnight at 4° C. with rocking. After overnight incubation 3 washes with 0.05% TBST for 5 minutes each were performed and goat-a-mouse HRP secondary (Jackson Immuno Research, 115-035-071) diluted at 1:5,000 in the 5% milk mixture was applied to the blots for 1 hour. […]
# Chain of aNRP2-36v2 (VL, as listed by the source): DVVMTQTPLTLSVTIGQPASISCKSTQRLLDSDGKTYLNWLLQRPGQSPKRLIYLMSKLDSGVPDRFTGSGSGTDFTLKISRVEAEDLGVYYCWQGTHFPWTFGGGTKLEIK
binding result (aNRP2-36v2),binding result (NRP1v2 (22-602)),Binder
binds,,B1
,no binding,B2
